B1: FBXO34 (parent)
chain: ASSVESTLPVLEASSWKKQVSHDF

Variants of: B1
Assay: protein stability index of a GFP-peptide fusion (GPS, HEK-293T) (PSI 1-6); higher = more stable
Details: c terminus: a fixed tail appended
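Also: lentivirally expressed fusions sorted by FACS into six bins by GFP to DsRed ratio, PSI derived from sequencing read proportions per bin multiplied by bin number.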

**Q.** For ASSVESTLPVLEADSWKKQVSHDF [S14D], which protein stability index is on record?
**A.** 1.67

**Q.** With ASSVESTLPVLEAGSWKKQVSHDF [S14G] as the variant, how does the protein stability index read?
**A.** 2.8

**Q.** Which protein stability index does the source give for ASSVESTLPVLEALSWKKQVSHDF [S14L] here?
**A.** 2.14

**Q.** With ASSVESTLPVLEAHSWKKQVSHDF [S14H] as the variant, how does the protein stability index read?
**A.** 2.4

**Q.** With ASSVESTLPVLEAQSWKKQVSHDF [S14Q] as the variant, how does the protein stability index read?
**A.** 2.4

**Q.** For ASSVESTLPVLEAISWKKQVSHDF [S14I], which protein stability index is on record?
**A.** 3.74

**Q.** For ASSVESTLPVLEAMSWKKQVSHDF [S14M], which protein stability index is on record?
**A.** 1.53

**Q.** For ASSVESTLPVLEAVSWKKQVSHDF [S14V], which protein stability index is on record?
**A.** 2.35

**Q.** With ASSVESTLPVLEANSWKKQVSHDF [S14N] as the variant, how does the protein stability index read?
**A.** 3.02

**Q.** Which protein stability index does the source give for ASSVESTLPVLEAFSWKKQVSHDF [S14F] here?
**A.** 2.49

**Q.** For ASSVESTLPVLEATSWKKQVSHDF [S14T], which protein stability index is on record?
**A.** 2.33

**Q.** For ASSVESTLPVLEACSWKKQVSHDF [S14C], which protein stability index is on record?
**A.** 2.95

**Q.** With ASSVESTLPVLEAESWKKQVSHDF [S14E] as the variant, how does the protein stability index read?
**A.** 2.75

**Q.** For ASSVESTLPVLEAPSWKKQVSHDF [S14P], which protein stability index is on record?
**A.** 3.07

**Q.** For ASSVESTLPVLEARSWKKQVSHDF [S14R], which protein stability index is on record?
**A.** 2.39

**Q.** Which protein stability index does the source give for ASSVESTLSVLEASSWKKQVSHDF [P9S] here?
**A.** 2.28

**Q.** With ASSVESTLTVLEASSWKKQVSHDF [P9T] as the variant, how does the protein stability index read?
**A.** 1.98

**Q.** With ASSVESTLNVLEASSWKKQVSHDF [P9N] as the variant, how does the protein stability index read?
**A.** 2.51

**Q.** Which protein stability index does the source give for ASSVESTLLVLEASSWKKQVSHDF [P9L] here?
**A.** 2.04

**Q.** Which protein stability index does the source give for ASSVESTLYVLEASSWKKQVSHDF [P9Y] here?
**A.** 1.8

**Q.** For ASSVESTLEVLEASSWKKQVSHDF [P9E], which protein stability index is on record?
**A.** 1.96

**Q.** Which protein stability index does the source give for ASSVESTLFVLEASSWKKQVSHDF [P9F] here?
**A.** 2.12

**Q.** For ASSVESTLKVLEASSWKKQVSHDF [P9K], which protein stability index is on record?
**A.** 2.5

**Q.** With ASSVESTLIVLEASSWKKQVSHDF [P9I] as the variant, how does the protein stability index read?
**A.** 1.74

**Q.** With ASSVESTLVVLEASSWKKQVSHDF [P9V] as the variant, how does the protein stability index read?
**A.** 2.4

**Q.** For ASSVESTLHVLEASSWKKQVSHDF [P9H], which protein stability index is on record?
**A.** 1.56

**Q.** With ASSVESTLWVLEASSWKKQVSHDF [P9W] as the variant, how does the protein stability index read?
**A.** 2.8

**Q.** For ASSVESTLGVLEASSWKKQVSHDF [P9G], which protein stability index is on record?
**A.** 1.89

**Q.** For ASSVESTLMVLEASSWKKQVSHDF [P9M], which protein stability index is on record?
**A.** 2.6

**Q.** Which protein stability index does the source give for ASSVESTLPWLEASSWKKQVSHDF [V10W] here?
**A.** 2.37

**Q.** With ASSVESTLPPLEASSWKKQVSHDF [V10P] as the variant, how does the protein stability index read?
**A.** 3.19

**Q.** For ASSVESTLPILEASSWKKQVSHDF [V10I], which protein stability index is on record?
**A.** 2.39

**Q.** Which protein stability index does the source give for ASSVESTLPELEASSWKKQVSHDF [V10E] here?
**A.** 2.83

**Q.** With ASSVESTLPTLEASSWKKQVSHDF [V10T] as the variant, how does the protein stability index read?
**A.** 2.58

**Q.** Which protein stability index does the source give for ASSVESTLPKLEASSWKKQVSHDF [V10K] here?
**A.** 2.45

**Q.** With ASSVESTLPQLEASSWKKQVSHDF [V10Q] as the variant, how does the protein stability index read?
**A.** 3.16

**Q.** With ASSVESTLPSLEASSWKKQVSHDF [V10S] as the variant, how does the protein stability index read?
**A.** 3.22

**Q.** With ASSVESTLPGLEASSWKKQVSHDF [V10G] as the variant, how does the protein stability index read?
**A.** 3.41

**Q.** For ASSVESTLPHLEASSWKKQVSHDF [V10H], which protein stability index is on record?
**A.** 2.5

**Q.** With ASSVESTLPMLEASSWKKQVSHDF [V10M] as the variant, how does the protein stability index read?
**A.** 3.73

**Q.** For ASSVESTLPALEASSWKKQVSHDF [V10A], which protein stability index is on record?
**A.** 3.64

**Q.** For ASSVESTLPFLEASSWKKQVSHDF [V10F], which protein stability index is on record?
**A.** 2.22

**Q.** For ASSVESTLPLLEASSWKKQVSHDF [V10L], which protein stability index is on record?
**A.** 2.55

**Q.** With ASSVESTLPRLEASSWKKQVSHDF [V10R] as the variant, how does the protein stability index read?
**A.** 2.3

**Q.** Which protein stability index does the source give for ASSVESTLPDLEASSWKKQVSHDF [V10D] here?
**A.** 3.25

**Q.** With ASSVESTLPCLEASSWKKQVSHDF [V10C] as the variant, how does the protein stability index read?
**A.** 2.95

**Q.** With ASSVESTLPYLEASSWKKQVSHDF [V10Y] as the variant, how does the protein stability index read?
**A.** 1.76

**Q.** With ASSVESTLPNLEASSWKKQVSHDF [V10N] as the variant, how does the protein stability index read?
**A.** 1.84

**Q.** For ASSVESTLPVLKASSWKKQVSHDF [E12K], which protein stability index is on record?
**A.** 2.36

**Q.** Which protein stability index does the source give for ASSVESTLPVLLASSWKKQVSHDF [E12L] here?
**A.** 2.24

**Q.** With ASSVESTLPVLTASSWKKQVSHDF [E12T] as the variant, how does the protein stability index read?
**A.** 2.86

**Q.** Which protein stability index does the source give for ASSVESTLPVLYASSWKKQVSHDF [E12Y] here?
**A.** 2.22

**Q.** Which protein stability index does the source give for ASSVESTLPVLGASSWKKQVSHDF [E12G] here?
**A.** 2.49

**Q.** For ASSVESTLPVLFASSWKKQVSHDF [E12F], which protein stability index is on record?
**A.** 2.25

**Q.** For ASSVESTLPVLHASSWKKQVSHDF [E12H], which protein stability index is on record?
**A.** 2.82

**Q.** Which protein stability index does the source give for ASSVESTLPVLNASSWKKQVSHDF [E12N] here?
**A.** 3.1

**Q.** Which protein stability index does the source give for ASSVESTLPVLPASSWKKQVSHDF [E12P] here?
**A.** 3.46

**Q.** Which protein stability index does the source give for ASSVESTLPVLIASSWKKQVSHDF [E12I] here?
**A.** 2.12

**Q.** Which protein stability index does the source give for ASSVESTLPVLDASSWKKQVSHDF [E12D] here?
**A.** 2.83

**Q.** With ASSVESTLPVLCASSWKKQVSHDF [E12C] as the variant, how does the protein stability index read?
**A.** 2.54

**Q.** Which protein stability index does the source give for ASSVESTLPVLSASSWKKQVSHDF [E12S] here?
**A.** 2.32

**Q.** Which protein stability index does the source give for ASSVESTLPVLVASSWKKQVSHDF [E12V] here?
**A.** 2.73

**Q.** Which protein stability index does the source give for ASSVESTLPVLAASSWKKQVSHDF [E12A] here?
**A.** 3.02

**Q.** Which protein stability index does the source give for ASSVESTLPVLEFSSWKKQVSHDF [A13F] here?
**A.** 2.38

**Q.** Which protein stability index does the source give for ASSVESTLPVLERSSWKKQVSHDF [A13R] here?
**A.** 1.59

**Q.** Which protein stability index does the source give for ASSVESTLPVLEVSSWKKQVSHDF [A13V] here?
**A.** 3

**Q.** Which protein stability index does the source give for ASSVESTLPVLEDSSWKKQVSHDF [A13D] here?
**A.** 3.19

**Q.** Which protein stability index does the source give for ASSVESTLPVLEKSSWKKQVSHDF [A13K] here?
**A.** 2.27

**Q.** Which protein stability index does the source give for ASSVESTLPVLEQSSWKKQVSHDF [A13Q] here?
**A.** 2.37

**Q.** For ASSVESTLPVLEMSSWKKQVSHDF [A13M], which protein stability index is on record?
**A.** 2.85

**Q.** For ASSVESTLPVLELSSWKKQVSHDF [A13L], which protein stability index is on record?
**A.** 2.61

**Q.** Which protein stability index does the source give for ASSVESTLPVLEHSSWKKQVSHDF [A13H] here?
**A.** 2.37

**Q.** With ASSVESTLPVLENSSWKKQVSHDF [A13N] as the variant, how does the protein stability index read?
**A.** 3.21

**Q.** Which protein stability index does the source give for ASSVESTLPVLESSSWKKQVSHDF [A13S] here?
**A.** 3.36

**Q.** With ASSVESTLPVLEPSSWKKQVSHDF [A13P] as the variant, how does the protein stability index read?
**A.** 3.66

**Q.** Which protein stability index does the source give for ASSVESTLPVLETSSWKKQVSHDF [A13T] here?
**A.** 2.18

**Q.** With ASSVESTLPVLECSSWKKQVSHDF [A13C] as the variant, how does the protein stability index read?
**A.** 2.36

**Q.** Which protein stability index does the source give for ASSVESTLPVLEISSWKKQVSHDF [A13I] here?
**A.** 2.49

**Q.** With ASSVESTLPVQEASSWKKQVSHDF [L11Q] as the variant, how does the protein stability index read?
**A.** 2.96

**Q.** With ASSVESTLPVMEASSWKKQVSHDF [L11M] as the variant, how does the protein stability index read?
**A.** 2.33

**Q.** For ASSVESTLPVCEASSWKKQVSHDF [L11C], which protein stability index is on record?
**A.** 2.85

**Q.** With ASSVESTLPVYEASSWKKQVSHDF [L11Y] as the variant, how does the protein stability index read?
**A.** 2.69

**Q.** For ASSVESTLPVREASSWKKQVSHDF [L11R], which protein stability index is on record?
**A.** 3.05

**Q.** For ASSVESTLPVKEASSWKKQVSHDF [L11K], which protein stability index is on record?
**A.** 2.19

**Q.** For ASSVESTLPVGEASSWKKQVSHDF [L11G], which protein stability index is on record?
**A.** 2.01

**Q.** Which protein stability index does the source give for ASSVESTLPVAEASSWKKQVSHDF [L11A] here?
**A.** 3.52

**Q.** Which protein stability index does the source give for ASSVESTLPVPEASSWKKQVSHDF [L11P] here?
**A.** 2.78

**Q.** Which protein stability index does the source give for ASSVESTLPVNEASSWKKQVSHDF [L11N] here?
**A.** 2.85

**Q.** For ASSVESTLPVWEASSWKKQVSHDF [L11W], which protein stability index is on record?
**A.** 2.54

**Q.** With ASSVESTLPVVEASSWKKQVSHDF [L11V] as the variant, how does the protein stability index read?
**A.** 3.03

**Q.** Which protein stability index does the source give for ASSVESTLPVIEASSWKKQVSHDF [L11I] here?
**A.** 2.91

**Q.** With ASSVESTLPVEEASSWKKQVSHDF [L11E] as the variant, how does the protein stability index read?
**A.** 3.02

**Q.** For ASSVESTLPVFEASSWKKQVSHDF [L11F], which protein stability index is on record?
**A.** 2.88

**Q.** With ASSVESTLPVTEASSWKKQVSHDF [L11T] as the variant, how does the protein stability index read?
**A.** 2.87
